According to US9327008B2, “Cell-permeant peptide-based inhibitor of kinases” (Purdue Research Foundation, priority 2008, dated 2016):

Legend:
CHK1 = target: T1, CHK1 (Homo sapiens, UniProt O14757); assay: Millipore radiometric kinase activity assay, CHK1 (h); type: biochemical
T1 construct: purchased Millipore (assay service)
T1 sequence (O14757 1-476): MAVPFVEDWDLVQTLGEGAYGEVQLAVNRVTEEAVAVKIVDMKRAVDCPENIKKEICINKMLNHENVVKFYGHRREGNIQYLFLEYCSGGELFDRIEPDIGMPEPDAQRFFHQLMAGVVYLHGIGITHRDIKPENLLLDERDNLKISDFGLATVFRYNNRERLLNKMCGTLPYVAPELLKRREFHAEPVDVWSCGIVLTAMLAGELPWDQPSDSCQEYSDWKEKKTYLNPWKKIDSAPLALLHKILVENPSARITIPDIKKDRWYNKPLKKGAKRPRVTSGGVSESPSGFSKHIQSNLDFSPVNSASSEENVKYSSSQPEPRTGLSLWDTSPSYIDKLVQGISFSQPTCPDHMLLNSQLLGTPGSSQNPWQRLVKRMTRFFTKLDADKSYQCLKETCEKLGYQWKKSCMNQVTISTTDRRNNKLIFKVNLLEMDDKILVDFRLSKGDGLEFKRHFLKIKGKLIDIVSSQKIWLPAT
Protocol: (§1) A commercial radiometric assay service (Millipore, Billerica, Mass.) was used to test the specificity and potency of peptides containing a coupled transduction domain and therapeutic domain, hereinafter “complete peptides”). In these assays, if the kinase is not inhibited by an inhibitor peptide, a positively charged substrate is phosphorylated with a radiolabeled phosphate group from an ATP.
(§2) In a final reaction volume of 25 μL, CHK1 (h) (5-10 mU) is incubated with 8 mM MOPS pH 7.0, 0.2 mM EDTA, 200 μM […] [SEQ ID NO: 53], 10 mM MgAcetate and [γ-^33P-ATP] (specific activity approx. 500 cpm/pmol, concentration as required). The reaction is initiated by the addition of the MgATP mix. After incubation for 40 minutes at room temperature, the reaction is stopped by the addition of 5 μL of a 3% phosphoric acid solution. 10 μL of the reaction is then spotted onto a P30 filtermat and washed three times for 5 minutes in 75 mM phosphoric acid and once in methanol prior to drying and scintillation counting.
(§3) IC50 values for inhibitor peptides were determined using Millipore's IC50Profiler Express service. The IC50 value was estimated from a 10-point curve of one-half log dilutions. For peptides tested for specificity, the concentration of the peptides that inhibited approximately 95% of MK2 activity was chosen to profile against a battery of kinases related to MK2, cell viability, or human disease from MilliporeKinaseProfiler service. In both assays, compounds were supplied in dimethylsulfoxide (DMSO). Every kinase activity measurement was conducted in duplicate.
(§4) Therapeutic inhibitor peptides were assayed for activity against human kinases related to MK2, cell viability, or human disease. The assays were performed using concentrations of therapeutic inhibitor peptides that yielded 2% to 8% of normal MK2 activity. Error is reported as the standard deviation between 2 samples, and “c” is rat AMPK whereas all other kinases used are human kinases.

KDR = target: T2, KDR (Homo sapiens, UniProt P35968); assay: Millipore radiometric kinase activity assay, KDR (h); type: biochemical
T2 construct: purchased Millipore (assay service)
Protocol: as §1
In a final reaction volume of 25 μL, KDR (h) (5-10 mU) is incubated with 8 mM MOPS pH 7.0, 0.2 mM EDTA, 0.33 mg/mL myelin basic protein, 10 mM MgAcetate and [γ-^33P-ATP] (specific activity approx. 500 cpm/pmol, concentration as required). The reaction is initiated by the addition of the MgATP mix. After incubation for 40 minutes at room temperature, the reaction is stopped by the addition of 5 μL of a 3% phosphoric acid solution. 10 μL of the reaction is then spotted onto a P30 filtermat and washed three times for 5 minutes in 75 mM phosphoric acid and once in methanol prior to drying and scintillation counting.
as §3, §4

MAPK1 = target: T3, MAPK1 (Homo sapiens, UniProt P27361); assay: Millipore radiometric kinase activity assay, MAPK1 (h); type: biochemical
T3 construct: purchased Millipore (radiometric assay service)
Protocol: as §1
In a final reaction volume of 25 μL, MAPK1 (h) (5-10 mU) is incubated with 25 mM Tris pH 7.5, 0.02 mM EGTA, 250 μM peptide, 10 mM MgAcetate and [γ-^33P-ATP] (specific activity approx. 500 cpm/pmol, concentration as required). The reaction is initiated by the addition of the MgATP mix. After incubation for 40 minutes at room temperature, the reaction is stopped by the addition of 5 μL of a 3% phosphoric acid solution. 10 μL of the reaction is then spotted onto a P30 filtermat and washed three times for 5 minutes in 75 mM phosphoric acid and once in methanol prior to drying and scintillation counting.
as §3, §4

MEK1 = target: T4, MEK1 (Homo sapiens, UniProt Q02750); assay: Millipore radiometric kinase activity assay, MEK1 (h); type: biochemical
T4 construct: purchased Millipore (radiometric assay service)
Protocol: as §1
The reaction is initiated by the addition of the MgATP. After incubation for 40 minutes at room temperature, 5 μL of this incubation mix is used to initiate a MAPK2 (m) assay.
as §3, §4

Met = target: T5, Met (Homo sapiens, UniProt P08581); assay: Millipore radiometric kinase activity assay, Met (h); type: biochemical
T5 construct: purchased Millipore (radiometric assay service)
Protocol: as §1
as §2, with “Met” for “CHK1”, “250” for “200”, “56],” for “53],”
as §3, §4

Ret = target: T6, Ret (Homo sapiens, UniProt P07949); assay: Millipore radiometric kinase activity assay, Ret (h); type: biochemical; settings: peptide 100 μM
T6 construct: purchased Millipore (radiometric assay service)
Protocol: as §1
In a final reaction volume of 25 μL, Ret (h) (5-10 mU) is incubated with 8 mM MOPS pH 7.0, 0.2 mM EDTA, 250 μM […] [SEQ ID NO: 56], 10 mM MgAcetate and [γ-^33P-ATP] (specific activity approx. 500 cpm/pmol, concentration as required). The reaction is initiated by the addition of the MgATP mix. After incubation for 40 minutes at room temperature, the reaction is stopped by the addition of 5 μl, of a 3% phosphoric acid solution. 10 μL of the reaction is then spotted onto a P30 filtermat and washed three times for 5 minutes in 75 mM phosphoric acid and once in methanol prior to drying and scintillation counting.
IC50 values for inhibitor peptides were determined using Millipore's IC50Profiler Express service. The IC50 value was estimated from a 10-point curve of one-half log dilutions. […]

43 kinases = assay: Specificity profile against battery of 43 kinases (Millipore KinaseProfiler); type: biochemical, human
Protocol: as §1, §3, §4

T2 sequence (P35968 20-1356): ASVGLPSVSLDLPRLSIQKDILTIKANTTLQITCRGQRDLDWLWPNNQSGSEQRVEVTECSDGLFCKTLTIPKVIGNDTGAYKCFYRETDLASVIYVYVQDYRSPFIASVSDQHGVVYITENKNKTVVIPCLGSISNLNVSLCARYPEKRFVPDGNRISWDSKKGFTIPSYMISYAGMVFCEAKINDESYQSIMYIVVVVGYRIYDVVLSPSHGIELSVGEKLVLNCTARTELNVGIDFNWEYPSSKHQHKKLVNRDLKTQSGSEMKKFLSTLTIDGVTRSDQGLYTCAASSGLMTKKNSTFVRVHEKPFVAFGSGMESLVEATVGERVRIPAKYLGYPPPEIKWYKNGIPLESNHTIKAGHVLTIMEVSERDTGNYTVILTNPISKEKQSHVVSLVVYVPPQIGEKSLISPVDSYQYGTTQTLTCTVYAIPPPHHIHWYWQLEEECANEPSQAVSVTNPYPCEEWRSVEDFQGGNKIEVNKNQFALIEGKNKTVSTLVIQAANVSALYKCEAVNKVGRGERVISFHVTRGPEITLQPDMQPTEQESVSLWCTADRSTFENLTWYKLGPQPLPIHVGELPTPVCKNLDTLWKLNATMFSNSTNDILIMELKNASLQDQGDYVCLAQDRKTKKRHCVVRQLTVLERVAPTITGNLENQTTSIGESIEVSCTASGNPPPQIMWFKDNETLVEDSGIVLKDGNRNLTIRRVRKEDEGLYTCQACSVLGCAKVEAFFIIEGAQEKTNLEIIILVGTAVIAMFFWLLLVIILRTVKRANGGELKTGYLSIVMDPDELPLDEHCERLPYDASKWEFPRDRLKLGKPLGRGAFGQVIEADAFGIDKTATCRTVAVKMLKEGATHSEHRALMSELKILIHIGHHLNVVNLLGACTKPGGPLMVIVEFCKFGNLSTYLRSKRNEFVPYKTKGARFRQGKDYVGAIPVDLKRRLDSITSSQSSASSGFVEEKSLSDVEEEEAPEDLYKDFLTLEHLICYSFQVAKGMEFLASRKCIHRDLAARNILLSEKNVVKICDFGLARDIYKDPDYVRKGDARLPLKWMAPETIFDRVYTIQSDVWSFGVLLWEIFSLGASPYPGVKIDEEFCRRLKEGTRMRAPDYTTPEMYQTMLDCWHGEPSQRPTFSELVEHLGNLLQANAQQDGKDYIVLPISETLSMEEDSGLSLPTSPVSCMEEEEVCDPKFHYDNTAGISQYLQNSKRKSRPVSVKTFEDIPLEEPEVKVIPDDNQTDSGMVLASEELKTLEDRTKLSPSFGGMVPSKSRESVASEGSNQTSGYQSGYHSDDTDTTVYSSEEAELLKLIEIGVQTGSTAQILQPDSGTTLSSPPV
T5 sequence (P08581 25-1390): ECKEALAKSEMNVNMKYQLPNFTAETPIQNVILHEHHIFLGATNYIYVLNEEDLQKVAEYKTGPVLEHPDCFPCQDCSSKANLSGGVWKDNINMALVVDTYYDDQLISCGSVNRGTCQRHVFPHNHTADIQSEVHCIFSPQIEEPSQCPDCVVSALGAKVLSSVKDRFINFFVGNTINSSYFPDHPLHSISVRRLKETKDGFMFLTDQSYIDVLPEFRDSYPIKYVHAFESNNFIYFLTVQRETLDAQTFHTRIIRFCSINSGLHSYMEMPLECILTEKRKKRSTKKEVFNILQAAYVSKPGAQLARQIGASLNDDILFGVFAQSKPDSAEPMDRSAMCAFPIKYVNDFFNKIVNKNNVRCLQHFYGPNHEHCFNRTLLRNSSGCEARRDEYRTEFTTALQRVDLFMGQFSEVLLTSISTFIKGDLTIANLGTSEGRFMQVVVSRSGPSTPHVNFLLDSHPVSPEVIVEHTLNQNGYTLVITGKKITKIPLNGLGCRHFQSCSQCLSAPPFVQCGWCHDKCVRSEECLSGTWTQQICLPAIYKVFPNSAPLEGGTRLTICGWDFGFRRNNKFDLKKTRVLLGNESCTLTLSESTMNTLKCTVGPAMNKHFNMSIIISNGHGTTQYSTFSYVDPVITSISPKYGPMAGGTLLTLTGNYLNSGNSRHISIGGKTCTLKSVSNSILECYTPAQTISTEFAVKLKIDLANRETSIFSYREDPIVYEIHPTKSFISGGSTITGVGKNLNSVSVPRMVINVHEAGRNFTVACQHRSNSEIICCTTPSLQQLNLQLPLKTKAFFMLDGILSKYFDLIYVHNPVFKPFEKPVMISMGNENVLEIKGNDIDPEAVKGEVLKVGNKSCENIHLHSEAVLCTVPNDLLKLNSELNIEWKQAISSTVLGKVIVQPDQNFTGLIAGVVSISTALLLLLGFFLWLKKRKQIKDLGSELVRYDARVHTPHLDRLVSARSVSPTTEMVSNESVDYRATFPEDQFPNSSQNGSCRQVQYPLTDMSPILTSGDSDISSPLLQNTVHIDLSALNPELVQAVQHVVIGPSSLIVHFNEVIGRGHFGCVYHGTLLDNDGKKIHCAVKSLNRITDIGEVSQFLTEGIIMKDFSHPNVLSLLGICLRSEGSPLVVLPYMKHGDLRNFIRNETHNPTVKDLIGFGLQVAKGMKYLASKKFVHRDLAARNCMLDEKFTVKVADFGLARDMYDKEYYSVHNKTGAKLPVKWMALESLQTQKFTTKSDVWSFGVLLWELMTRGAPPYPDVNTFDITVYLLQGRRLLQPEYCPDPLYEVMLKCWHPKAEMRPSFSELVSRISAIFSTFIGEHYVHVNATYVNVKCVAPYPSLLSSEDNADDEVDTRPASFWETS
T3 sequence (P27361 whole entry): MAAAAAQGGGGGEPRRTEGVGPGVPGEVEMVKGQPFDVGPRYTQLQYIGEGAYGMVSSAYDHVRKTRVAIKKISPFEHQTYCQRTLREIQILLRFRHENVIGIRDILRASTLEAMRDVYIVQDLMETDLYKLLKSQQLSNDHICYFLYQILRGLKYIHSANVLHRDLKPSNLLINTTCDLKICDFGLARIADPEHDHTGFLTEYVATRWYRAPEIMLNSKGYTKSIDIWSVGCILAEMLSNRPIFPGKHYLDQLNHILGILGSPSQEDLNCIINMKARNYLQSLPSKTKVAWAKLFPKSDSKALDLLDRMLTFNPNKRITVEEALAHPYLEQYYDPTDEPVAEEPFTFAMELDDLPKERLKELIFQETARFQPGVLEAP
T6 sequence (P07949 29-1114): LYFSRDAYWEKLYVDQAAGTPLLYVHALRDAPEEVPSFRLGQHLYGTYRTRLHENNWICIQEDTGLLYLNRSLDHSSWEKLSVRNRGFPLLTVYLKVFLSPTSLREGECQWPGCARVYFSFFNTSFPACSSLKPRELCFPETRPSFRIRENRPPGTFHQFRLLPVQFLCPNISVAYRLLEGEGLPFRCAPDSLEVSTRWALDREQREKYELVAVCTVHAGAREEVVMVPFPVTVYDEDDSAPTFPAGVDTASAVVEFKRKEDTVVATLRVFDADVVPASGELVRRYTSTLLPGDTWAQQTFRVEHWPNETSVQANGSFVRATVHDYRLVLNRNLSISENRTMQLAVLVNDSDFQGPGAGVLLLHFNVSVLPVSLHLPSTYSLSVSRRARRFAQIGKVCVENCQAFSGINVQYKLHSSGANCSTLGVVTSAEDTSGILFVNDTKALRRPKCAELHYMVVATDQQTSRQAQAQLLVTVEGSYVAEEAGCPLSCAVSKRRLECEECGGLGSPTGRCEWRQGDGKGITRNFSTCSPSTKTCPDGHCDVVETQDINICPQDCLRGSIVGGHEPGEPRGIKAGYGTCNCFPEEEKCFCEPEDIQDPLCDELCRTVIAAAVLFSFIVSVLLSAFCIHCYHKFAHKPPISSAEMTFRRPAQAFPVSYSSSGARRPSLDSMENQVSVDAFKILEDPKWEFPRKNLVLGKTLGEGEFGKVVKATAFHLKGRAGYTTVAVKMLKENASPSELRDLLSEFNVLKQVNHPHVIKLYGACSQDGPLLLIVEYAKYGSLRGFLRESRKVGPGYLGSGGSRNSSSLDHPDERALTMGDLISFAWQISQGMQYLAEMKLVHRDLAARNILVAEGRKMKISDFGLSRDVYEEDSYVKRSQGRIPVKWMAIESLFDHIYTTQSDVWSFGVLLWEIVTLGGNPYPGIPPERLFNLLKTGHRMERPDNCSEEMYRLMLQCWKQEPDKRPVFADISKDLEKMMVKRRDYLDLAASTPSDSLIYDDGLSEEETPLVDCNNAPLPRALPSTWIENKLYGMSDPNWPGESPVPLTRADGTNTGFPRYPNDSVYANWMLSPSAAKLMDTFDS

| Sequence | CHK1 Kinase Activity (%) (+SD %) (CHK1; peptide 30 μM) | CHK1 Kinase Activity (%) (+SD %) (CHK1; peptide 100 μM) | KDR Kinase Activity (%) (+SD %) (KDR; peptide 30 μM) | KDR Kinase Activity (%) (+SD %) (KDR; peptide 100 μM) | MAPK1 Kinase Activity (%) (+SD %) (MAPK1; peptide 30 μM) | MAPK1 Kinase Activity (%) (+SD %) (MAPK1; peptide 100 μM) | MEK1 Kinase Activity (%) (+SD %) (MEK1; peptide 30 μM) | MEK1 Kinase Activity (%) (+SD %) (MEK1; peptide 100 μM) | Met Kinase Activity (%) (+SD %) (Met; peptide 30 μM) | Met Kinase Activity (%) (+SD %) (Met; peptide 100 μM) | Ret Kinase Activity (%) (+SD %) (Ret) | Percentage of the 43 kinases Tested with less than 20% Activity (43 kinases; Concentration Tested 30 μM) [%] | Percentage of the 43 kinases Tested with less than 20% Activity (43 kinases; Concentration Tested 100 μM) [%] |
| --- | --- | --- | --- | --- | --- | --- | --- | --- | --- | --- | --- | --- | --- |
| WLRRIKAWLRRIKALNRQLGVAA | 31 (5) % | 54 (6) % | 27 (0) % | 78 (6) % | 121 (5) % | 104 (3) % | 14 (2) % | 68 (2) % | 30 (1) % | 17 (3) % | 89 (0) % | 47 | – |
| FAKLAARLYRKALARQLGVAA | – | – | – | – | – | – | – | – | – | – | – | – | 37 |
| KAFAKLAARLYRKALARQLGVAA | – | 68 (0) % | – | 56 (4) % | – | 108 (1) % | – | 66 (0) % | – | 22 (3) % | 107 (9) % | – | – |
